This assay has as its target A9UPE9 PDZ (A9UPE9_MONBE PDZ domain, residues 7-98) (Monosiga brevicollis). Description: fluorescence polarisation. A general note: Polarisation of emitted light reports the rotation of a fluorescent probe.

By Ki is commonly meant the equilibrium dissociation constant of an inhibitor or competing ligand from its target. A lower Ki goes with a stronger hold on the target. A9UP44 peptide (QSESRL): the Ki came to 64 µM.

A9UWP5_MONVE peptide (GSESSV) displayed a Ki of 490 µM. This Ki is about 7.7-fold higher than that of the substance before.

As for A9UXE1 peptide (QDETAL), the Ki was 460 µM.

As for A9V6G5_MONBE peptide (HRESTV), the Ki was 97 µM.

The substance A9V7Z4 peptide (EDETAL) gave an inhibition constant (Ki) of 580 µM. This Ki lies about 6-fold higher than the previous one.

The substance B1AR peptide (ASESKV) yielded an inhibition constant Ki of 95 µM.

On to BPIX peptide (WDETNL), for which the Ki stood at 330 µM.

Regarding DLL1/DLL4 peptide (VIATEV), the Ki was 240 µM.

For TYRP1 peptide (PNQSVV), the inhibition constant Ki worked out at 97 µM.

The values are drawn from article PMC8512817.
